Here are results for 1 molecule from patent publication US20190010232A1 (Eli Lilly, published 2019).

The target of assay [1] is PD-L1 expressed on cells (UniProt Q9NZQ7 19-290, limits assumed). As to the kind of experiment: cell-based or functional assay.
For assay [2], the target named is T1, human PD-L1-Fc (R&D Systems, cat#156-B7) (human, UniProt Q9NZQ7 19-239).
T1 construct: Bought reagent; both are treated here as the same molecule; also called PD-L1 ligand; not shown: Fc part of the bought fusion protein
T1 sequence (Q9NZQ7 19-239 limits assumed): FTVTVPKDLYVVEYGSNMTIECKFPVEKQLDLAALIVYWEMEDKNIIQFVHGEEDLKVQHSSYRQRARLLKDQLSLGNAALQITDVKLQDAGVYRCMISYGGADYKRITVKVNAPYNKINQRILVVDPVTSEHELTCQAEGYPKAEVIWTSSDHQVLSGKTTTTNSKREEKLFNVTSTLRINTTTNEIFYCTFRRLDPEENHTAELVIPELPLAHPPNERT
Kind of assay: ELISA, plate coated with human PD-L1-Fc, detection with anti-human IgG F(ab')2-HRP.

Chain of PD-L1 expressed on cells (Q9NZQ7 19-290 limits assumed): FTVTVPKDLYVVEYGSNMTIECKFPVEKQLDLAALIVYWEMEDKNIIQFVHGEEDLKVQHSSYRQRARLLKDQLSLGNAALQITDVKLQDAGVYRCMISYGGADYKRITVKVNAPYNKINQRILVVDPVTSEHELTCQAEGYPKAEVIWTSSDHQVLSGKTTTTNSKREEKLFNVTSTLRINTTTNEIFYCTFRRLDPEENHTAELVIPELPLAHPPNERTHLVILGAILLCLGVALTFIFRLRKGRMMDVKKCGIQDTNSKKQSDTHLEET

B1: parent PD-L1 antibody (as IgG1-EN homodimer) (antibody, V domains shown)
VH: QVQLVQSGAEVKKPGSSVKVSCKASGGTFSSYAISWVRQAPGQGLEWMGGIIPIFGTANYAQKFQGRVTITADKSTSTAYMELSSLRSEDTAVYYCARSPDYSPYYYYGMDVWGQGTTVTVSS
VL: QSVLTQPPSASGTPGQRVTISCSGSSSNIGSNTVNWYQQLPGTAPKLLIYGNSNRPSGVPDRFSGSKSGTSASLAISGLQSEDEADYYCQSYDSSLSGSVFGGGIKLTVL
notes: IgG1-EN homodimer; parent of the anti-PD-L1 arm of the bispecific antibodies; also called parental PD-L1 Ab; parental anti-PD-L1 antibody
A word on the EC50: it is the concentration that produces a half-maximal response. Turning to B1, the “EC50, PD-1/NFAT Reporter Jurkat T cell assay with PD-L1 positive T cell activator CHO cells” value in assay [1] came out at 1.92 nM. It took 0.47 nM to reach a half-maximal effect in assay [2] (EC50).
